Measured values taken from the Immune Epitope Database (IEDB).
pIC50, pKd: −log10 of the molar value.

Key:
HLA-A*02:01 [1] = test: IEDB peptide-MHC binding, purified MHC/competitive/fluorescence; ≥ and ≤ were set here for values at or beyond the usual limits of such assays; details: source organism: Zaire ebolavirus
HLA-A*24:02 [2] = test: as above; details: source organism: Zaire ebolavirus
HLA-B*08:01 [3] = test: as above; details: source organism: Zaire ebolavirus
HLA-A*02:01 [4] = test: IEDB peptide-MHC binding, purified MHC/competitive/fluorescence; filed as Kd, often an IC50 or EC50 that approximates it; ≥ and ≤ were set here for values at or beyond the usual limits of such assays
HLA-A*02:03 = test: as above
HLA-A*02:11 = test: as above
HLA-A*02:12 = test: as above
HLA-A*02:16 = test: as above
HLA-A*02:19 = test: as above
HLA-A*03:01 [5] = test: as above
HLA-A*23:01 = test: as above
HLA-A*24:03 = test: as above
HLA-A*26:01 = test: as above
HLA-A*29:02 = test: as above
HLA-A*69:01 [6] = test: as above
HLA-B*15:01 [7] = test: as above
HLA-B*15:17 = test: as above
HLA-B*18:01 [8] = test: as above
HLA-B*27:03 = test: as above
HLA-B*39:01 = test: as above
HLA-B*46:01 [9] = test: as above
HLA-B*51:01 = test: as above
HLA-B*57:01 = test: as above
HLA-A*01:01 = test: IEDB peptide-MHC binding, purified MHC/direct/fluorescence; filed as Kd, often an IC50 or EC50 that approximates it; ≥ and ≤ were set here for values at or beyond the usual limits of such assays
HLA-A*03:01 [10] = test: as above
HLA-A*11:01 [11] = test: as above
HLA-A*24:02 [12] = test: as above
HLA-B*07:02 [13] = test: as above
HLA-B*08:01 [14] = test: as above; details: source organism: Influenza A virus (A/WSN/1933(H1N1))
HLA-B*15:01 [15] = test: as above
HLA-B*27:05 = test: as above
HLA-B*40:01 = test: as above
HLA-B*44:02 = test: as above; details: source organism: Influenza A virus (A/WSN/1933(H1N1))
HLA-B*46:01 [16] = test: as above
HLA-B*58:01 = test: as above
HLA-A*02:01 [17] = test: as above
HLA-A*31:01 = test: as above; details: source organism: Influenza A virus (A/equine/Massachussetts/213/2003(H3N8))
HLA-A*69:01 [18] = test: as above; details: source organism: Influenza A virus (A/equine/Massachussetts/213/2003(H3N8))
HLA-B*15:09 = test: as above; details: source organism: Influenza A virus(A/swine/Henan/8/2004(H9N2))
HLA-B*18:01 [19] = test: as above; details: source organism: Influenza A virus (A/equine/Massachussetts/213/2003(H3N8))
HLA-A*03:01 [20] = test: IEDB peptide-MHC binding, purified MHC/competitive/fluorescence; ≥ and ≤ were set here for values at or beyond the usual limits of such assays; details: source organism: Zaire ebolavirus
HLA-A*11:01 [21] = test: as above; details: source organism: Zaire ebolavirus
HLA-B*07:02 [22] = test: as above; details: source organism: Zaire ebolavirus
HLA-B*15:01 [23] = test: as above; details: source organism: Zaire ebolavirus
HLA-A*68:02 = test: IEDB peptide-MHC binding, purified MHC/competitive/fluorescence; filed as Kd, often an IC50 or EC50 that approximates it; ≥ and ≤ were set here for values at or beyond the usual limits of such assays; details: source organism: Burkholderia orbicola
[24] = source organism: Brucella melitensis bv. 1 str. 16M
[25] = source organism: Influenza A virus (A/WSN/1933(H1N1))
[26] = source organism: Influenza A virus (A/equine/Massachussetts/213/2003(H3N8))
[27] = source organism: Zaire ebolavirus
[28] = source organism: Burkholderia orbicola

TNFLIKFLL
pIC50 (HLA-A*02:01 [1]): ≤ 3.74 | pIC50 (HLA-A*24:02 [2]): 5.49 | pIC50 (HLA-B*08:01 [3]): ≤ 3.28

AVGVVCTGL
pKd (HLA-A*02:01 [4]; [24]): ≤ 4.70 | pKd (HLA-A*02:03; [24]): ≤ 4.70 | pKd (HLA-A*02:11; [24]): ≤ 4.70 | pKd (HLA-A*02:12; [24]): ≤ 4.70 | pKd (HLA-A*02:16; [24]): 6.56 | pKd (HLA-A*02:19; [24]): ≤ 4.70 | pKd (HLA-A*03:01 [5]; [24]): ≤ 4.70 | pKd (HLA-A*23:01; [24]): ≤ 4.70 | pKd (HLA-A*24:03; [24]): ≤ 4.70 | pKd (HLA-A*26:01; [24]): ≤ 4.70 | pKd (HLA-A*29:02; [24]): ≤ 4.70 | pKd (HLA-A*69:01 [6]; [24]): ≤ 4.70 | pKd (HLA-B*15:01 [7]; [24]): ≤ 4.70 | pKd (HLA-B*15:17; [24]): ≤ 4.70 | pKd (HLA-B*18:01 [8]; [24]): ≤ 4.70 | pKd (HLA-B*27:03; [24]): ≤ 4.70 | pKd (HLA-B*39:01; [24]): ≤ 4.70 | pKd (HLA-B*46:01 [9]; [24]): ≤ 4.70 | pKd (HLA-B*51:01; [24]): ≤ 4.70 | pKd (HLA-B*57:01; [24]): ≤ 4.70

NLEPGTFDL
pKd (HLA-A*01:01; [25]): ≤ 4.70 | pKd (HLA-A*03:01 [10]; [25]): ≤ 4.70 | pKd (HLA-A*11:01 [11]; [25]): ≤ 4.70 | pKd (HLA-A*24:02 [12]; [25]): ≤ 4.70 | pKd (HLA-B*07:02 [13]; [25]): ≤ 4.70 | pKd (HLA-B*08:01 [14]): ≤ 4.70 | pKd (HLA-B*15:01 [15]; [25]): ≤ 4.70 | pKd (HLA-B*27:05; [25]): ≤ 4.70 | pKd (HLA-B*40:01; [25]): ≤ 4.70 | pKd (HLA-B*44:02): ≤ 4.70 | pKd (HLA-B*46:01 [16]; [25]): ≤ 4.70 | pKd (HLA-B*58:01; [25]): ≤ 4.70

NHKNKFMAI
pIC50 (HLA-A*24:02 [2]): 4.71 | pIC50 (HLA-B*08:01 [3]): 4.80

ILKGKFQTA
pKd (HLA-A*01:01; [26]): ≤ 4.70 | pKd (HLA-A*02:01 [17]; [26]): ≤ 4.70 | pKd (HLA-A*03:01 [10]; [26]): ≤ 4.70 | pKd (HLA-A*11:01 [11]; [26]): ≤ 4.70 | pKd (HLA-A*24:02 [12]; [26]): ≤ 4.70 | pKd (HLA-A*31:01): ≤ 4.70 | pKd (HLA-A*69:01 [18]): ≤ 4.70 | pKd (HLA-B*07:02 [13]; [26]): ≤ 4.70 | pKd (HLA-B*15:01 [15]; source organism: Influenza A virus (A/Puerto Rico/8/34/Mount Sinai(H1N1))): 5.24 | pKd (HLA-B*15:09): ≤ 4.70 | pKd (HLA-B*18:01 [19]): ≤ 4.70 | pKd (HLA-B*27:05; [26]): ≤ 4.70 | pKd (HLA-B*40:01; [26]): ≤ 4.70 | pKd (HLA-B*46:01 [16]; [26]): ≤ 4.70 | pKd (HLA-B*58:01; [26]): ≤ 4.70

RLMRTNFLI
pIC50 (HLA-A*02:01 [1]): 6.29 | pIC50 (HLA-A*03:01 [20]): 5.47 | pIC50 (HLA-A*11:01 [21]): 5.40 | pIC50 (HLA-A*24:02 [2]): 7.67 | pIC50 (HLA-B*07:02 [22]): 4.80 | pIC50 (HLA-B*08:01 [3]): 4.23 | pIC50 (HLA-B*15:01 [23]): 4.94 | pKd (HLA-A*02:01 [17]; [27]): 7.76 | pKd (HLA-A*26:01; [27]): ≤ 4.70 | pKd (HLA-B*18:01 [8]; [27]): ≤ 4.70 | pKd (HLA-B*46:01 [9]; [27]): ≤ 4.70

RIEQLYPFA
pKd (HLA-A*02:01 [4]; [28]): ≤ 4.70 | pKd (HLA-A*02:03; [28]): ≤ 4.70 | pKd (HLA-A*02:11; [28]): ≤ 4.70 | pKd (HLA-A*02:12; [28]): ≤ 4.70 | pKd (HLA-A*02:16; [28]): 6.54 | pKd (HLA-A*02:19; [28]): ≤ 4.70 | pKd (HLA-A*03:01 [5]; [28]): ≤ 4.70 | pKd (HLA-A*23:01; [28]): ≤ 4.70 | pKd (HLA-A*24:03; [28]): ≤ 4.70 | pKd (HLA-A*26:01; [28]): ≤ 4.70 | pKd (HLA-A*29:02; [28]): ≤ 4.70 | pKd (HLA-A*68:02): ≤ 4.70 | pKd (HLA-A*69:01 [6]; [28]): ≤ 4.70 | pKd (HLA-B*15:01 [7]; [28]): ≤ 4.70 | pKd (HLA-B*15:17; [28]): ≤ 4.70 | pKd (HLA-B*18:01 [8]; [28]): ≤ 4.70 | pKd (HLA-B*27:03; [28]): ≤ 4.70 | pKd (HLA-B*39:01; [28]): ≤ 4.70 | pKd (HLA-B*46:01 [9]; [28]): ≤ 4.70 | pKd (HLA-B*51:01; [28]): ≤ 4.70 | pKd (HLA-B*57:01; [28]): ≤ 4.70
